Measurements taken from the supplement of paper PMC12042874.
± gives the uncertainty stated by the source.

Assay: amyloid nucleation score (Sup35N fusion, yeast selection) (log enrichment); library NNK1; higher = more nucleation; inactive = no reads after selection
Outline: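 Nucleation score: DiMSum log enrichment of output over input reads, centred on the mode score of non-aggregating sequences. Only sequences with at least 100 input reads were kept. Reads came from Illumina sequencing of plasmid inserts before and after 7 days of growth at 30°C without adenine and uracil, in psi-negative yeast expressing Sup35N fused to peptides of 20 random codons after 24 hours of induction with 100 μM copper sulfate.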

Substance | amyloid nucleation score
VEIYWWGYPPKNSI | -0.239 ± 0.39
VELGRLIPPEHETQDLRSGW | 0.258 ± 0.46
VEQLFGLAMRDLA | -0.448 ± 0.8
VESLDKIPMR | 0.173 ± 0.73
VESVSWVCDRCTGLVLVWSG | inactive
VETRRWFHRL | -0.177 ± 1.4
VEVKSCIWDFGCNQRGYGDG | 5.32 ± 0.079
VFCLRLAYNAFREMSAHKC | 3.31 ± 0.18
VFFKKAIIFRSKV | 0.318 ± 0.33
VFGVGGTYLFIDVEAVWGSG | 1.61 ± 0.57
VFKGQMVVPPIYVYLVSWMG | -1.06 ± 1.7
VFLFNTAYESKNPMSKLKVC | -1.24 ± 0.5
VFLIDLLLTMCFFLYGAFLV | 0.76 ± 1.1
VFRDVHD | 0.417 ± 0.42
VFRTISYRV | 0.039 ± 0.69
VFSFLPSYGHKCTAKQFFSA | -0.3 ± 1.4
VFYFELKG | -0.183 ± 0.28
VFYFYYFDEMCVSSMNRLKL | -0.36 ± 0.27
VFYGCVDESCDLNRLGSVSY | -0.101 ± 0.54
VGELFCGWSRRERYPVWSLV | 0.255 ± 1.4
VGFGPVWTRPYNTWYNYGKS | 0.514 ± 0.66
VGIEFLYLPFVSSRWVVTKW | 0.277 ± 1.4

Substance | amyloid nucleation score
VGISCPYYLGRGIMVEARSD | -0.006 ± 0.62
VGIWIGVDMGIGWGRDSVYV | 0.125 ± 0.53
VGMSSDCAGSLRRWRLWARL | 4.55 ± 0.1
VGNEWSVLRLGGGVGSIFL | -1.07 ± 1.3
VGNNKLFKTPMKDRELMICL | -0.184 ± 0.48
VGNRCGVL | 0.05 ± 0.33
VGPIFLHTLRRSVN | -0.532 ± 0.83
VGSQKCLYCGVAYSEGVWIY | inactive
VGVMFG | -0.06 ± 0.69
VGVSAVSTNSSVSKIFGTSW | 0.746 ± 0.85
VHCHMEITSWLGRRS | 2.8 ± 0.12
VHDVWEGFICGLPKYRGRLM | 0.026 ± 0.75
VHIPHDCISAIVFRSSAAIS | -0.331 ± 0.49
VHNHISP | -0.836 ± 0.37
VHSCYLVLARQWNVIKISHI | 0.039 ± 0.43
VHTGLVSEIRRDKREGAYPE | 0.128 ± 0.99
VHTVYLLVDTR | 0.289 ± 1.2
VHVLWLWQSMLLVHWSAV | 1.29 ± 0.93
VIESG | 1.34 ± 0.93
VIFSGVTRFHSRTCLRFVMI | -0.09 ± 0.79
VIKSRP | 0.639 ± 0.42
VILFNSNTEYQKLEQLLELW | 0.153 ± 0.23

Substance | amyloid nucleation score
VILSYRLSEWGSSGDGDGRR | -0.562 ± 0.8
VIMCVSRCTVRCV | 0.486 ± 0.52
VIRFSGVLCMIDL | 5.09 ± 0.071
VISIFVEF | 3.69 ± 0.12
VITVSGSEGEIEWSS | -1.64 ± 2.7
VKHCQFR | 1.69 ± 0.73
VKIHASEVYFPMQSTYLMVD | 0.086 ± 0.72
VKPLLIHIRALLEM | 1.55 ± 0.52
VKVGVCGSVGWLHTGVQSNG | 0.804 ± 0.3
VLANDVVPNSIYKKVSITYC | 0.884 ± 0.7
VLATGVCACTGVYTFMTWWV | -0.455 ± 0.47
VLCVFCGNLHMIVLDCAFDA | 8.589 ± 0.051
VLESIQGCYFLGASWIAEFR | 0.409 ± 0.48
VLFLDI | 0.793 ± 0.58
VLFYQF | -0.382 ± 0.69
VLGMCGTRYIDFF | 3.12 ± 0.085
VLGSVIGFLWNP | 2.23 ± 0.088
VLGYSRPLSDTSSVGTIIPA | 0.172 ± 0.38
VLKCFSLEVVTWDSACLAGL | 0.252 ± 1.1
VLKCRERRFRIHGHWTRRGP | -0.63 ± 0.47
VLLCNFRSRVWRYRCFKAFS | 0.93 ± 0.19
VLLTR | 0.505 ± 0.36

Substance | amyloid nucleation score
VLLWVGLTYATGLGRRSSLF | -1.3 ± 0.97
VLMLRSGWPQRRPHFG | -0.301 ± 0.76
VLMQVSTLAAWDSKRDMTSC | 0.528 ± 0.35
VLMVPWVDGSCSS | -1.06 ± 1.3
VLPCSGQA | 0.79 ± 0.26
VLTNESRGYTIRLGSYSRFV | 2.4 ± 0.49
VLTTGTYFATVYIK | inactive
VLTVAGF | -0.561 ± 0.44
VLVVTALLSRV | 1.67 ± 0.22
VMKDTQLLCNFRVSRVLMFE | inactive
VMLVVMGLFELFWLSNVV | inactive
VMVWLGDREAGLCESELGAG | 0.12 ± 0.45
VMWSVDFWYPAMSGVIPDQF | 1.45 ± 0.65
VNAIYDSWLSL | inactive
VNLFLVMKFK | 6.676 ± 0.043
VNLRKEPDNRGLGLDFRLN | 0.001 ± 0.78
VNRALAFNCWSALILGNAVV | -0.608 ± 0.31
VNRYFVFVSVMIYMLCESRF | 0.295 ± 0.75
VNSNPSSGAFWI | 0.571 ± 0.87
VNVIWAFYNN | 5.7 ± 0.072
VNVSVDFKREMRIPWLAGIC | -0.651 ± 0.67
